Test results from patent US11534528B2, “Sterilization of self-assembling peptides by irradiation” (3-D Matrix, Ltd., priority 2020, dated 2022).
Where “and” joins values, the source holds several entries; their conditions need not be identical. Identical values can stand only once.

What was measured:
[1] = Appearance of peptide solution before and after irradiation; format: physicochemical; settings: for appearance and pH, summary: after gamma, X-ray and e-beam irradiation at around 25~40 kGy
Method: (§1) Samples were irradiated with gamma rays at 23, 25, 28 and 40 kGy with VPTrad Gammacell 220® High Dose Rate Co-60 Irradiator. In some embodiments, the run dose rate and duration time for 40 kGy irradiation were 6.30 kGy/hr and 6 hours 20 minutes 58 seconds, respectively. In other embodiments, the run dose rate and duration time for 28 kGy irradiation were 4.40 kGy/hr and 6 hours 22 minutes 31 seconds, respectively. In other embodiments, the run dose rate and duration time for 25 kGy irradiation were 6.58 kGy/hr and 3 hours 47 minutes 42 seconds, respectively. In other embodiments, the run dose rate and duration time for 23 kGy irradiation were 6.58 kGy/hr and 3 hours 29 minutes 29 seconds, respectively.
(§2) In other embodiments, samples were irradiated with X-ray at 25 kGy and 40 kGy with a Mevex accelerator (10 MeV, 20 kW).
(§3) In other embodiments, samples were irradiated with e-beam at 25 and 40 kGy with a Mevex accelerator (10 MeV, 20 kW).
(§4) Methods and test results: The appearance of PuraStat® was observed after each test. The pH of PuraStat® was tested using an Accumet AB15 pH meter (Fisher Scientific). HPLC tests were performed to evaluate the major peptide content after irradiation tests. Agilent HPLC 1100 (Agilent Technologies) was used for this study. Column temperature was kept at 25° C.

[2] = pH of peptide solution before and after irradiation; format: physicochemical
Method: as §1, §2, §3, §4

[3] = HPLC test for major peptide content; format: physicochemical; settings: N = 3, mean ± SD
Method: HPLC tests were performed to evaluate the major peptide content after irradiation tests. An Agilent HPLC 1100 (Agilent Technologies) was used for this study. The column temperature was kept at 25° C.
For RADA16 (SEQ ID NO:1) samples, solvent A was water with 0.1% TFA and solvent B was 80% acetonitrile with 0.1% TFA. Gradient of solvent B was controlled from 10% to 40% in 20 min and 40% for another 5 min at 25° C. Agilent Zorbax 300SB-C18 column (4.6 mm×250 mm, 5 μm, 300 Å) was used for this test. PuraStat® (RADA16 (SEQ ID NO:1) 2.5%) (40 mg) was mixed with 10 μL of DH2O and the mixture was vortexed. The mixture was further mixed with 500 μL of formic acid and vortexed. This mixture was then mixed with DH2O (4,450 μL) and vortexed. 20 μL samples were injected using an Agilent autosampler.
For IEIK13 (SEQ ID NO:3) samples, solvent A was water with 0.1% TFA and solvent B was 90% Acetonitrile with 0.1% TFA. The gradient of solvent B was controlled from 20% to 43% in 8 min, from 43% to 70% between 8 and 9.5 min, and from 70% to 95% between 9.5 and 30 min, and 95% for another 5 min at 25° C. An Agilent PLRP-S column (4.6 mm×250 mm, 8 μm, 300 Å) was used for this test. A 1.3% solution of IEIK13 (SEQ ID NO:3) was diluted with water with 0.1% TFA to 0.075% and the mixture was vortexed. 35 μL samples were injected using an Agilent autosampler.
For QLEL12 (SEQ ID NO:4) samples, solvent A was water and solvent B was 80% acetonitrile. The gradient of solvent B was controlled from 20% to 80% in 15 min and 80% for another 7 min at 25° C. An Agilent PLRP-S column (4.6 mm×250 mm, 8 μm, 300 Å) was used for this test. 0.15% w/v of QLEL12 (SEQ ID NO:4) solution was diluted to 0.01% with DH2O and vortexed. 50 μL samples were injected using an Agilent autosampler.
as §4
Solvent A was water with 0.1% TFA and solvent B was 80% Acetonitrile with 0.1% TFA. Gradient of solvent B was controlled from 10% to 40% in 20 min and 40% for another 5 min at 25° C. Agilent Zorbax 300SB-C18 column (4.6 mm×250 mm, 5 μm, 300 Å) was used for this test. PuraStat® (RADA16 (SEQ ID NO:1) 2.5%) (40 mg) were mixed with 10 μL of DH2O and 500 μL of formic acid and vortexed. And the mixture was mixed with DH2O (4,450 μL) and vortexed. 20 μL of samples were injected using an Agilent autosampler.
Agilent HPLC 1100 (Agilent Technologies) was used for this study. Column temperature was kept at 25° C. Agilent Zorbax 300SB-C18 column (4.6 mm×250 mm, […], 300 Å) was used for this test. Solvent A was water with 0.1% TFA and solvent B was 80% Acetonitrile with 0.1% TFA. Gradient of solvent B was controlled from 10% to 40% in 20 min and 40% for another 5 min at 25° C. PuraStat® (40 mg) was mixed with 10 μL of DH2O and 500 μL of formic acid and vortexed, and the mixture was mixed with DH2O (4,450 μL) and vortexed. […] of samples were injected using an Agilent autosampler.

[4] = Mass spectrometry test for degradation of the peptides; format: physicochemical
Method: (§5) Mass spectrometry tests were carried out to investigate the degradation of the peptides after irradiation sterilization. An Agilent LC/MSD ion trap mass spectrometer was used for this study. The sample solutions were prepared as described above for the HPLC samples. Each sample was injected at 9 μL/min with a syringe pump. Each mass spectrum was recorded for 1 minute.
as §5, with “sterilization.” for “sterilization. An”, “Mass” for “Each mass”, “minute. The molecular weight of PuraStat® (Ac-(RADA)4-NH2) (SEQ ID NO:1) is 1712, which matches its calculated molecular weight from the major three peaks at m/3=572, m/2=857, and m=1713 in all the spectra of control and irradiated PuraStat® samples.” for “minute.”

[5] = RADA16 in solution; cited from earlier work
[6] = after gamma, X-ray or e-beam irradiation

Ac-IEIKIEIKIEIKI-NH2 [IEIK13]
Appearance ([1]; X-ray irradiation at 25 kGy): Clear and viscous | Appearance ([1]; X-ray irradiation at 40 kGy): Clear and viscous | appearance and pH, summary [1]: remained unchanged | Appearance ([1]; control, not irradiated): Clear and viscous | Appearance ([1]; e-beam irradiation at 25 kGy): Clear and viscous | Appearance ([1]; e-beam irradiation at 40 kGy): Clear and viscous | Appearance ([1]; gamma irradiation at 28 kGy): Clear and viscous | Appearance ([1]; gamma irradiation at 40 kGy): Clear and viscous | pH ([2]; X-ray irradiation at 25 kGy): 3.0 | pH ([2]; X-ray irradiation at 40 kGy): 3.0 | pH ([2]; control, not irradiated): 3.0 | pH ([2]; e-beam irradiation at 25 kGy): 3.0 | pH ([2]; e-beam irradiation at 40 kGy): 3.0 | pH ([2]; gamma irradiation at 28 kGy): 3.0 | pH ([2]; gamma irradiation at 40 kGy): 3.0 | Major peptide content (%) ([3]; X-ray irradiation at 25 kGy): 99.8% and 99.8 ± 0.1% | Major peptide content (%) ([3]; X-ray irradiation at 40 kGy): 99.9% and 99.9 ± 0.1% | Major peptide content (%) ([3]; control, not irradiated): 99.6% and 99.6 ± 0.0% | Major peptide content (%) ([3]; e-beam irradiation at 25 kGy): 99.6% and 99.6 ± 0.2% | Major peptide content (%) ([3]; e-beam irradiation at 40 kGy): 99.8% and 99.8 ± 0.1% | Major peptide content (%) ([3]; gamma irradiation at 40 kGy): 99.8% and 99.8 ± 0.2% | degradation by mass spectrometry analysis [4, 6]: only insubstantially degraded

Ac-KLDLKLDLKLDL-NH2 [KLD12, self-assembling peptide]
Appearance ([1]; X-ray irradiation at 25 kGy): Clear and viscous | Appearance ([1]; X-ray irradiation at 40 kGy): Clear and viscous | appearance and pH, summary [1]: remained unchanged | Appearance ([1]; control, not irradiated): Clear and viscous | Appearance ([1]; e-beam irradiation at 25 kGy): Clear and viscous | Appearance ([1]; e-beam irradiation at 40 kGy): Clear and viscous | Appearance ([1]; gamma irradiation at 40 kGy): Clear and viscous | pH ([2]; X-ray irradiation at 25 kGy): 2.2 | pH ([2]; X-ray irradiation at 40 kGy): 2.2 | pH ([2]; control, not irradiated): 2.2 | pH ([2]; e-beam irradiation at 25 kGy): 2.2 | pH ([2]; e-beam irradiation at 40 kGy): 2.2 | pH ([2]; gamma irradiation at 40 kGy): 2.2

Ac-QLELQLELQLEL-NH2 [QLEL12, self-assembling peptide, degraded by irradiation]
Appearance ([1]; X-ray irradiation at 25 kGy): Clear and watery | Appearance ([1]; X-ray irradiation at 40 kGy): Clear and watery | Appearance ([1]; control, not irradiated): Clear and viscous | Appearance ([1]; e-beam irradiation at 25 kGy): Clear and watery | Appearance ([1]; e-beam irradiation at 40 kGy): Clear and watery | Appearance ([1]; gamma irradiation at 23 kGy): Clear and watery | Appearance ([1]; gamma irradiation at 25 kGy): Clear and watery | Appearance ([1]; gamma irradiation at 40 kGy): Clear and watery | pH ([2]; X-ray irradiation at 25 kGy): 6.3 | pH ([2]; X-ray irradiation at 40 kGy): 5.9 | pH ([2]; control, not irradiated): 7.0 | pH ([2]; e-beam irradiation at 25 kGy): 6.6 | pH ([2]; e-beam irradiation at 40 kGy): 6.5 | pH ([2]; gamma irradiation at 23 kGy): 6.7 | pH ([2]; gamma irradiation at 25 kGy): 6.5 | pH ([2]; gamma irradiation at 40 kGy): 5.9 | Major peptide content (%) ([3]; X-ray irradiation at 25 kGy): 57.0% and 57.0 ± 4.9 % | Major peptide content (%) ([3]; X-ray irradiation at 40 kGy): 47.3% and 47.3 ± 1.3 % | Major peptide content (%) ([3]; control, not irradiated): 90.5% and 90.5 ± 1.3% | Major peptide content (%) ([3]; e-beam irradiation at 25 kGy): 51.9% and 51.9 ± 7.3 % | Major peptide content (%) ([3]; e-beam irradiation at 40 kGy): 55.6% and 55.6 ± 3.0 % | Major peptide content (%) ([3]; gamma irradiation at 40 kGy): 40.7% and 40.7 ± 3.1 % | degradation by mass spectrometry analysis [4, 6]: significantly degraded

Ac-RADARADARADARADA-NH2 [RADA16]
appearance and pH, summary [1]: remained unchanged | Major peptide content (%) ([3]; X-ray irradiation at 25 kGy): 73.8% | Major peptide content (%) ([3]; X-ray irradiation at 40 kGy): 71.9% | Major peptide content (%) ([3]; control, not irradiated): 78.3% | Major peptide content (%) ([3]; e-beam irradiation at 25 kGy): 76.0% | Major peptide content (%) ([3]; e-beam irradiation at 40 kGy): 70.0% | Major peptide content (%) ([3]; gamma irradiation at 23 kGy): 75.5% | Major peptide content (%) ([3]; gamma irradiation at 25 kGy): 74.6% | Major peptide content (%) ([3]; gamma irradiation at 28 kGy): 68.5% | Major peptide content (%) ([3]; gamma irradiation at 40 kGy): 69.7% | degradation by mass spectrometry analysis [4, 6]: not degraded | degradation by mass spectrometry analysis ([4]; autoclave treatment (121° C. for 20 min)): completely degraded | degradation on autoclaving [5]: complete thermal degradation
